Measurements from US12559545.

Tests used:
[1] = biological target: HeV-RBP head domain (residues 185-604), recombinant soluble (Hendra virus) (UniProt O89343); assay: ELISA, RBP head domain coated on plate, hybridoma IgG
[2] = biological target: NiVB-RBP head domain (residues 185-602), recombinant soluble (Nipah virus, strain Bangladesh) (UniProt Q9IH62); assay: as above
[3] = biological target: NiVM-RBP head domain (residues 183-602), recombinant soluble (Nipah virus, strain Malaysia) (UniProt Q9IH62); assay: as above
[4] = biological target: HeV-RBP head domain (residues 185-604), recombinant soluble (Hendra virus) (UniProt O89343); assay: BLI on HeV RBP head domain, after first mAb HENV-21
[5] = biological target: HeV-RBP head domain (residues 185-604), recombinant soluble (Hendra virus) (UniProt O89343); assay: BLI on HeV RBP head domain, after first mAb HENV-32
[6] = biological target: HeV-RBP head domain (residues 185-604), recombinant soluble (Hendra virus) (UniProt O89343); assay: BLI on HeV RBP head domain, after first mAb HENV-9
[7] = biological target: HeV-RBP head domain (residues 185-604), recombinant soluble (Hendra virus) (UniProt O89343); assay: BLI on HeV RBP head domain, after first mAb HENV-1
[8] = biological target: HeV-RBP head domain (residues 185-604), recombinant soluble (Hendra virus) (UniProt O89343); assay: BLI on HeV RBP head domain, after first mAb HENV-18
[9] = biological target: NiVB RBP on live Nipah virus Bangladesh (Nipah virus, strain Bangladesh) (UniProt Q9IH62); assay: cell-based or functional assay
[10] = biological target: HeV RBP on live Hendra virus (Hendra virus) (UniProt O89343); assay: cell-based or functional assay
[11] = biological target: HeV-RBP head domain (residues 185-604), recombinant soluble (Hendra virus) (UniProt O89343); assay: BLI on HeV RBP head domain, after first mAb HENV-10
[12] = biological target: HeV-RBP head domain (residues 185-604), recombinant soluble (Hendra virus) (UniProt O89343); assay: BLI on HeV RBP head domain, after first mAb HENV-2
[13] = biological target: HeV-RBP head domain (residues 185-604), recombinant soluble (Hendra virus) (UniProt O89343); assay: BLI on HeV RBP head domain, after first mAb HENV-43
[14] = biological target: full-length HeV-RBP expressed on the surface of transfected cells (Hendra virus) (UniProt O89343)
[15] = biological target: full-length NiVM-RBP expressed on the surface of transfected cells (Nipah virus, strain Malaysia) (UniProt Q9IH62)
[16] = biological target: full-length NiVB-RBP expressed on the surface of transfected cells (Nipah virus, strain Bangladesh) (UniProt Q9IH62)
[17] = biological target: HeV-RBP head domain (residues 185-604), recombinant soluble (Hendra virus) (UniProt O89343); assay: BLI on HeV RBP head domain, after first mAb HENV-19
[18] = biological target: HeV-RBP head domain (residues 185-604), recombinant soluble (Hendra virus) (UniProt O89343); assay: BLI on HeV RBP head domain, after first mAb HENV-26

Substance: HENV-26 (antibody)
- Area under the curve [1]: 5.39
- EC50 [1]: 0.14 µg/mL
- Area under the curve [2]: 10.5
- EC50 [2]: 0.09 µg/mL
- Area under the curve [3]: 11
- EC50 [3]: 0.07 µg/mL
- % of signal of second mAb alone [4]: 99%
- % of signal of second mAb alone [5]: 100%
- % of signal of second mAb alone [6]: 97%
- % of signal of second mAb alone [7]: 97%
- % of signal of second mAb alone [8]: 91%
- Area under the curve (neutralization) [9]: 289
- IC50, plaque reduction neutralization of live virus [9]: 0.03 µg/mL
- IC80, plaque reduction neutralization of live virus [9]: 0.12 µg/mL
- Max % Inhibition (neutralization) [9]: 100%
- Area under the curve (neutralization) [10]: 281
- IC50, plaque reduction neutralization of live virus [10]: 0.07 µg/mL
- IC80, plaque reduction neutralization of live virus [10]: 0.19 µg/mL
- Max % Inhibition (neutralization) [10]: 100%
- % of signal of second mAb alone [11]: 100%
- % of signal of second mAb alone [12]: 97%
- % of signal of second mAb alone [13]: 109%
- EC50 [14]: 0.325 µg/mL
- EC50 [15]: 0.326 µg/mL
- EC50 [16]: 0.326 µg/mL
- % of signal of second mAb alone [17]: 91%
- % of signal of second mAb alone [18]: -5%
